Data as given in article PMC7854593, “Molecular mechanism for vitamin C-derived C^5-glyceryl-methylcytosine DNA modification catalyzed by algal TET homologue CMD1” (Nature Communications, 2021).
Positions count from the first letter of the chain named.

Columns and labels:
MBP-fused CMD1 = target: T1, MBP-fused CMD1 (Chlamydomonas reinhardtii, UniProt A0A2K3D5Z7); assay: X-ray crystal structure, crystals soaked with sodium L-ascorbate; type: binding; conditions: Fe2+ in active site; pH 5.0-5.6 citrate; 400 mM soak; binary complex 7CY5 (2.20 A) and ternary complex with 5mC-DNA 7CY8 (2.40 A); lactone form, monodentate via C2-hydroxyl
T1 construct: full-length CMD1 with N-terminal MBP via alpha-helical linker and C-terminal His6, tags kept; expressed in E. coli; residues 509-532 disordered in apo crystal, C-terminal region partly degraded in crystals
T1 sequence (A0A2K3D5Z7 whole entry, the tested form may be a part): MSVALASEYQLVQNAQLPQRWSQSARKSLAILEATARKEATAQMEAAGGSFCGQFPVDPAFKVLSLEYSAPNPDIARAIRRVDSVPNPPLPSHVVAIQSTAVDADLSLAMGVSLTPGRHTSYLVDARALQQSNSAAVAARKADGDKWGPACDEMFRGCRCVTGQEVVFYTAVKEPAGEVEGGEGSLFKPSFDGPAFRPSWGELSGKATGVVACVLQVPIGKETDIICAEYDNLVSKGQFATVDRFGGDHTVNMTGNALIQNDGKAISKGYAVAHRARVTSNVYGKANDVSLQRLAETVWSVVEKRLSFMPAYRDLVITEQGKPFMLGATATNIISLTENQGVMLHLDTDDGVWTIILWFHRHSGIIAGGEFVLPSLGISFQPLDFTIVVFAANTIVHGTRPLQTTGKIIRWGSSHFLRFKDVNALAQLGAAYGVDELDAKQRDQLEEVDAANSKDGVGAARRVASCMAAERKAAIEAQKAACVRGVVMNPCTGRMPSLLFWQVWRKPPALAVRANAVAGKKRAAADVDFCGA

MBP-CMD1 [1] = target: T2, MBP-CMD1 (UniProt A0A2K3D5Z7 1-532); assay: crystal structure; Fe2+; BLI: 20 mM Tris-HCl pH 8.0, 50 mM NaCl, 0.1% Tween-20, 0.5% BSA, 25 C; biotin-DNA on streptavidin sensors, 1:1 fit; conditions: protein: recombinant; tags: N-terminal MBP via alpha-helical linker; C-terminal His6; 10 bp palindromic duplex, 3' overhang 4 nt on both strands
T2 sequence (A0A2K3D5Z7 whole entry): as the sequence (A0A2K3D5Z7 whole entry, the tested form may be a part) above

CMD1 [2] = target: T3, CMD1 (UniProt A0A2K3D5Z7 1-532); assay: BLI; range over dsDNA1-4; BLI: 20 mM Tris-HCl pH 8.0, 50 mM NaCl, 0.1% Tween-20, 0.5% BSA, 25 C; biotin-DNA on streptavidin sensors, 1:1 fit; conditions: protein: recombinant; tags: His6-SUMO, cleaved with ULP1; label: 5'-biotin
T3 sequence (A0A2K3D5Z7 whole entry): as the sequence (A0A2K3D5Z7 whole entry, the tested form may be a part) above

CMD1 [3] = target: T3, CMD1; assay: BLI; range over dsDNA7-9; BLI: 20 mM Tris-HCl pH 8.0, 50 mM NaCl, 0.1% Tween-20, 0.5% BSA, 25 C; biotin-DNA on streptavidin sensors, 1:1 fit; conditions: protein: recombinant; tags: His6-SUMO, cleaved with ULP1; label: 5'-biotin
CMD1 [4] = target: T3, CMD1; assay: BLI; BLI: 20 mM Tris-HCl pH 8.0, 50 mM NaCl, 0.1% Tween-20, 0.5% BSA, 25 C; biotin-DNA on streptavidin sensors, 1:1 fit; conditions: protein: recombinant, tags: His6-SUMO, cleaved with ULP1, label: 5'-biotin
MBP-CMD1 [5] = target: T2, MBP-CMD1; assay: as above; conditions: protein: recombinant; tags: N-terminal MBP via alpha-helical linker; C-terminal His6; label: 5'-biotin; 10 bp palindromic duplex, 3' overhang 4 nt on both strands
CMD1 [6] = target: T3, CMD1; assay: BLI; range over six structured DNAs; BLI: 20 mM Tris-HCl pH 8.0, 50 mM NaCl, 0.1% Tween-20, 0.5% BSA, 25 C; biotin-DNA on streptavidin sensors, 1:1 fit; conditions: protein: recombinant, tags: His6-SUMO, cleaved with ULP1, label: 5'-biotin
CMD1 [7] = target: T3, CMD1; assay: BLI; range over dsDNA5-6; BLI: 20 mM Tris-HCl pH 8.0, 50 mM NaCl, 0.1% Tween-20, 0.5% BSA, 25 C; biotin-DNA on streptavidin sensors, 1:1 fit; conditions: protein: recombinant; tags: His6-SUMO, cleaved with ULP1; label: 5'-biotin

Molecule: O=C1O[C@H]([C@@H](O)CO)C(O)=C1O [VC]
- X-ray crystal structure, crystals soaked with sodium L-ascorbate (MBP-fused CMD1): crystals of CMD1 in complex with VC were obtained by soaking the apo CMD1 crystals

B1: 14-nt DNA (crystal), unmodified (dsDNA)
DNA 1: CCCGCGCGGGATGT
DNA 2: CCCGCGCGGGATGT
- binding result (MBP-CMD1 [1]): binds

B2: dsDNA3 (40 bp, GC-rich) (dsDNA)
DNA 1: GCTGGCCCTGACATGGGTGCCAGCGTAGTGCGCGTAGCGC
DNA 2: GCGCTACGCGCACTACGCTGGCACCCATGTCAGGGCCAGC
- Kd (CMD1 [2]): ~2.22 µM

B3: dsDNA8 (10-30 bp) (dsDNA)
DNA 1: ACTTACTGCCAATATAGTAT
DNA 2: ATACTATATTGGCAGTAAGT
- Kd (CMD1 [3]): ~1.93 µM

B4: dsDNA2 (40 bp, AT-rich) (dsDNA)
DNA 1: ATACTTACGAATCTGAACTTAGATCCTAATATACATTCTA
DNA 2: TAGAATGTATATTAGGATCTAAGTTCAGATTCGTAAGTAT
- Kd (CMD1 [2]): ~2.22 µM

Molecule: TTTTTTCTTTTTTCTTTTTTCTTTTTTCTTTTTTCTTTTT (ssDNA) [ssDNA (40 nt)]
- Kd (CMD1 [4]): 2.77 µM

B5: dsDNA4 (40 bp, GC-rich) (dsDNA)
DNA 1: GACATCGGCGCGGGGTTCAGCCCCGGCCGTATTGGGGCTC
DNA 2: GAGCCCCAATACGGCCGGGGCTGAACCCCGCGCCGATGTC
- Kd (CMD1 [2]): ~2.22 µM

B6: 14-nt 5mC-DNA (BLI) (dsDNA)
DNA 1: CCCGCGCGGGATGT
DNA 2: CCCGCGCGGGATGT
modifications: 5mC at position 3 of both strands
- Kd (MBP-CMD1 [5]): 0.81 ± 0.03 µM
- Kd (CMD1 [4]; 10 bp palindromic duplex, 3' overhang 4 nt on both strands): 2.01 ± 0.11 µM

B7: dsDNA9 (10-30 bp) (dsDNA)
DNA 1: AACTTACATAAATGCCAATATAGTATGCGT
DNA 2: ACGCATACTATATTGGCATTTATGTAAGTT
- Kd (CMD1 [3]): ~1.93 µM

B8: bubble DNA (structured_DNA)
DNA 1: GCTTTAACTTACATACCCCCCCCCCTAGTATGCGTATTGC
DNA 2: GCAATACGCATACTATTTTTTTTTTTATGTAAGTTAAAGC
- Kd (CMD1 [6]; bubble): ~1.38 µM

B9: Y-DNA (structured_DNA)
DNA 1: GCTTTAACTTACATAAATGCCAATATAGTATGCGTATTGC
DNA 2: TACCGCATACGCCTATATTGGCATTTATGTAAGTTAAAGC
- Kd (CMD1 [6]; fork): ~1.38 µM

B10: 5'-flap DNA (structured_DNA)
DNA 1: B9 DNA 1
DNA 2: B9 DNA 2
DNA 3: GCAATACGCATA
- Kd (CMD1 [6]; 5' flap): ~1.38 µM

B11: 3'-flap DNA (structured_DNA)
DNA 1: B9 DNA 1
DNA 2: B9 DNA 2
DNA 3: GCGTATGCGGTA
- Kd (CMD1 [6]; 3' flap): ~1.38 µM

B12: dsDNA1 (40 bp, AT-rich) (dsDNA)
DNA 1: B9 DNA 1
DNA 2: B8 DNA 2 with T17A, T20G, T21G, T22C, T23A
- Kd (CMD1 [2]): ~2.22 µM

B13: dsDNA5 (40 bp, 5mC) (dsDNA)
DNA 1: B9 DNA 1
DNA 2: B8 DNA 2 with T17A, T20G, T21G, T22C, T23A
modifications: one or two 5mC
- Kd (CMD1 [7]): ~2.4 µM

B14: dsDNA6 (40 bp, 5mC) (dsDNA)
DNA 1: B9 DNA 1
DNA 2: B8 DNA 2 with T17A, T20G, T21G, T22C, T23A
modifications: one or two 5mC
- Kd (CMD1 [7]): ~2.4 µM
